{
  "source": "paper PMC10641069",
  "about": "“Intra- and inter-molecular regulation by intrinsically-disordered regions governs PUF protein RNA binding” (Nature Communications, 2023)",
  "molecules": {"B1": {"name": "FBF-2 RBD + CT Y479A: FBF-2 RBD + CT mutated in the R7-R8 loop (Y479A) (protein, UniProt Q09312 164-632, looked up, variant Y479A)", "chain": "SNNVLPTWSLDSNGEMRSRLSLSEVLDSGDLMKFAVDKTGCQFLEKAVKGSLTSYQKFQLFEQVIGRKDDFLKLSTNIFGNYLVQSVIGISLATNDDGYTKRQEKLKNFISSQMTDMCLDKFACRVIQSSLQNMDLSLACKLVQALPRDARLIAICVDQNANHVIQKVVAVIPLKNWEFIVDFVATPEHLRQICSDKYGCRVVQTIIEKLTADSMNVDLTSAAQNLRERALQRLMTSVTNRCQELATNEYANYIIQHIVSNDDLAVYRECIIEKCLMRNLLSLSQEKFASHVVEKAFLHAPLELLAEMMDEIFDGAIPHPDTGKDALDIMMFHQFGNYVVQCMLTICCDAVSGRRQTKEGGYDHAISFQDWLKKLHSRVTKERHRLSRFSSGKKMIETLANLRSTHPIYELQSSGHDSFKTDYFSTASEHDGPELEKNGIEEGSLMLEPRSNKSSVSVKFSSSGSHGDD"}},
  "key": {"LST-1": {"test_system": "LST-1", "details": "Y479A mutation; cited from earlier work"}, "gld-1 FBEa RNA [1]": {"biological_target": "gld-1 FBEa RNA", "test": "Surface plasmon resonance, RNA-binding kinetics", "parameters": "species or system C. elegans", "experimental": "Kinetics of FBF-2 binding to the gld-1 FBEa RNA were measured using a 2-channel OpenSPR instrument (Nicoya). A 3′-biotin-labeled synthetic RNA was ordered from Horizon Discovery (gld-1 FBEa, 5′-AUCAUGUGCCAUACA-biotin-3′). The 3′-biotinylated RNA was immobilized on streptavidin-treated biotin sensor chips (Nicoya). All experiments were performed at 20 °C with a buffer of 20 mM HEPES, pH 7.4, 150 mM NaCl, and 2 mM DTT. SPR data were collected using OpenSPR (Nicoya, version 4.3). FBF-2 proteins were injected with a flow rate of 20 µl/min. Data were obtained at five different protein concentrations (25, 50, 100, 200, and 400 nM for wild type RBD + CT; 12.5, 25, 50, 100, and 200 nM for RBD + CT mutants and wild type RBD). Sensor chips were regenerated using 0.05% or 0.1% (v/v) SDS. For each experiment, five binding curves were simultaneously fit using a 1:1 binding model with the TraceDrawer software (Ridgeview Instruments, version 1.9.1). Mean values and standard deviation were calculated from two technical replicates. Despite our efforts, the fit of the binding curves for the association phase of FBF-2 RBD and FBF-2 RBD + CT mutants is poorer than the fit for FBF-2 RBD + CT WT. The appearance of the curves is consistent with the derived kon and koff values, and importantly, the curve fit for the dissociation phase is better."}, "[2]": {"test": "Melting temperature of FBF-2 proteins", "assay_type": "physicochemical", "experimental": "Mutants of FBF-2 RBD + CT: Y479A (5′-[…]), L610A (5′-[…]), and Loop6A (E592A, D594A, E597A, E599A, E604A, E605A; 5′-[…]) were generated by site-directed mutagenesis with the primers indicated. Plasmid sequences were verified by DNA sequencing (Azenta Life Sciences). Protein variants were expressed and purified like wild type proteins. Melting temperatures of wild type and mutant proteins were assessed by differential scanning […]. Reaction mixtures (total volume of 20 μl) contained ~0.3 mg/ml FBF-2 proteins and Sypro Orange dye (1:1000 dilution) (Sigma). Fluorescent intensity was collected from 25 °C to 95 °C (3 °C increment/min) with a real time PCR instrument (Applied Biosystems™ QuantStudio 7 Flex System) using excitation and emission wavelengths of 470 nm and 586 nm, respectively. Protein Thermal Shift^TM software (Applied Biosystems, version 1.4) was used to analyze protein melting curves and calculate melting temperatures (Tm)."}, "gld-1 FBEa RNA [3]": {"biological_target": "gld-1 FBEa RNA", "test": "Electrophoretic mobility shift assay (EMSA), RNA binding", "parameters": "species or system C. elegans", "experimental": "A 3′-Cy5-labeled synthetic RNA was ordered from IDT (gld-1 FBEa, 5′-[…]-3′). The FBF-2 proteins were serially diluted 2-fold from the highest concentration of 10 µM in the buffer used for gel filtration (20 mM HEPES pH 7.4, 150 mM NaCl, and 0.5 mM TCEP). 10 µl of the serially diluted protein samples were mixed with 10 µl RNA (10 nM) in a 2× buffer of 10 mM HEPES pH 7.4, 0.01% (v/v) Tween 20, 0.1 mg/ml BSA, 0.1 mg/ml yeast tRNA, and 2 mM DTT. For experiments in the presence of LST-1, LST-1 proteins at constant concentration were preincubated with FBF-2 at 4 °C for 2 h. The LST-1 concentrations were chosen based on their Kd’s for interaction with FBF-2. The final FBF-2 concentrations ranged from 5000 nM to 0.6 nM, and the LST-1 A or B concentrations were constant at 150 μM or 50 μM, respectively. The protein-RNA mixtures were incubated at 4 °C overnight. The samples were resolved on 10% TBE polyacrylamide gels run at constant voltage (100 V) with 1× TBE buffer at room temperature for 35 min. The gels were scanned and visualized with a Typhoon FLA 9500 imager using the Cy5 channel (excitation wavelength 635 nm). Band intensities were quantified with ImageQuant 5.2 (Cytiva). The data were fit with GraphPad Prism (version 9.2.0) using nonlinear regression with a one-site specific binding model. Mean Kd’s and standard error of the mean (SEM) from three or more technical replicates are reported (Supplementary Table 4). Full scan images for the replicates shown in the main figures and gel images for all replicates are included in a source data file."}, "[4]": {"details": "mean ± SD, two technical replicates, 20 °C, pH 7.4, 1:1 model"}},
  "note": "“And” between values parts separate entries of the source, which are not always exact repeats. Equal values may be shown once. Read-outs that look alike come from different tables or passages of the source.",
  "data": [
    {"molecule": "B1", "values": [
      {"measurement": "interaction with LST-1", "setting": "LST-1", "value": "disrupts interaction between FBF-2 and LST-1"},
      {"measurement": "Kd", "setting": "gld-1 FBEa RNA [1]; derived from on/off rates, mean ± SD, two technical replicates", "value": "12.9 ± 6.4", "unit": "nM"},
      {"measurement": "koff", "setting": "gld-1 FBEa RNA [1]; [4]", "value": "1.18 ± 0.11 x10^-3 s^-1"},
      {"measurement": "kon", "setting": "gld-1 FBEa RNA [1]; [4]", "value": "10.2 ± 4.3 x10^4 M^-1 s^-1"},
      {"measurement": "Kd", "setting": "gld-1 FBEa RNA [1]; replicate 1", "value": 17.4, "unit": "nM"},
      {"measurement": "kon", "setting": "gld-1 FBEa RNA [1]; replicate 1", "value": 71900, "unit": "M⁻¹ s⁻¹"},
      {"measurement": "koff", "setting": "gld-1 FBEa RNA [1]; replicate 1, read-out: koff", "value": 0.00125, "unit": "s⁻¹"},
      {"measurement": "Kd", "setting": "gld-1 FBEa RNA [1]; replicate 2", "value": 8.3, "unit": "nM"},
      {"measurement": "kon", "setting": "gld-1 FBEa RNA [1]; replicate 2", "value": 133000, "unit": "M⁻¹ s⁻¹"},
      {"measurement": "koff", "setting": "gld-1 FBEa RNA [1]; replicate 2, read-out: koff", "value": 0.0011, "unit": "s⁻¹"},
      {"measurement": "thermal stability", "setting": "[2]; in words, vs RBD alone or vs RBD + CT", "value": "decreased the thermal stability"},
      {"measurement": "Tm", "setting": "[2]; mean ± SD, three technical replicates, ~0.3 mg/ml protein, Sypro Orange, 25 to 95 °C, fluorescence", "value": "35.25 ± 0.05", "unit": "°C"},
      {"measurement": "Tm", "setting": "[2]; replicate 1", "value": 35.30, "unit": "°C"},
      {"measurement": "Tm", "setting": "[2]; replicate 2", "value": 35.30, "unit": "°C"},
      {"measurement": "Tm", "setting": "[2]; replicate 3", "value": 35.16, "unit": "°C"},
      {"measurement": "Kd", "setting": "gld-1 FBEa RNA [3]", "value": "36 nM and 39 nM and 47 nM"},
      {"measurement": "Kd", "setting": "gld-1 FBEa RNA [3]; no LST-1, mean ± SEM of independent technical replicates (n = 3-5), 4 °C overnight, pH 7.4, Cy5-RNA 5′-AUCAUGUGCCAUAC-3′", "value": 62, "unit": "nM"},
      {"measurement": "Kd", "setting": "gld-1 FBEa RNA [3]; no LST-1, replicate 1", "value": 75, "unit": "nM"},
      {"measurement": "Kd", "setting": "gld-1 FBEa RNA [3]; no LST-1, replicate 2", "value": 64, "unit": "nM"},
      {"measurement": "Kd", "setting": "gld-1 FBEa RNA [3]; no LST-1, replicate 3", "value": 48, "unit": "nM"},
      {"measurement": "Kd", "setting": "gld-1 FBEa RNA [3]; pH 7.4", "value": "41 ± 6", "unit": "nM"}
    ]}
  ]
}
